B1: Cyclin-Y (Homo sapiens), Q8ND76-1 (parent)
chain: MGNTTSCCVSSSPKLRRNAHSRLESYRPDTDLSREDTGCNLQHISDRENIDDLNMEFNPSDHPRASTIFLSKSQTDVREKRKSLFINHHPPGQIARKYSSCSTIFLDDSTVSQPNLKYTIKCVALAIYYHIKNRDPDGRMLLDIFDENLHPLSKSEVPPDYDKHNPEQKQIYRFVRTLFSAAQLTAECAIVTLVYLERLLTYAEIDICPANWKRIVLGAILLASKVWDDQAVWNVDYCQILKDITVEDMNELERQFLELLQFNINVPSSVYAKYYFDLRSLAEANNLSFPLEPLSRERAHKLEAISRLCEDKYKDLRRSARKRSASADNLTLPRWSPAIIS

Variants of: B1
Conditions: with cdk16_human CDK16, Q00536
cdk16_human CDK16, Q00536, sequence (Q00536 whole entry): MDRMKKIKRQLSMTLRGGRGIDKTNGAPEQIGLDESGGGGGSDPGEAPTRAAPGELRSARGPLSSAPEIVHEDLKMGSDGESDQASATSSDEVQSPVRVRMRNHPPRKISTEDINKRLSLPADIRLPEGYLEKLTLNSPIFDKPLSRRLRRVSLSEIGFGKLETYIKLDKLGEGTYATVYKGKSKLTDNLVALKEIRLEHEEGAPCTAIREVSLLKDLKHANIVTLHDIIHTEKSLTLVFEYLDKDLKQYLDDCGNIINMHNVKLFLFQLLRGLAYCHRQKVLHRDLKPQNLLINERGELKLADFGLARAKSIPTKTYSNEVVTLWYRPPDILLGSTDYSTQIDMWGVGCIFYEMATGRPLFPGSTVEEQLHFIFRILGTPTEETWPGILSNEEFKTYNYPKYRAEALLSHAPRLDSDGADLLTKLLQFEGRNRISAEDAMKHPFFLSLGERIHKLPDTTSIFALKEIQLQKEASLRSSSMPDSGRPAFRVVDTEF
For MGNTTSCCVSSSPKLRRNAHSRLESYRPDTDLSREDTGCNLQHISDRENIDDLNMEFNPSDHPRASTIFLSKSQTDVREKRKSLFINHHPPGQIARKYSSCSTIFLDDSTVSQPNLKYTIKCVALAIYYHIKNRDPDGRMLLDIFDENLHPLSKSEVPPDYDKHNPEQKQIYRFVRTLFSAAQLTAECAIVTLVYLERLLTYAEIDICPANWKRIVLGAILAAAKVWDDQAVWNVDYCQILKDITVEDMNELERQFLELLQFNINVPSSVYAKYYFDLRSLAEANNLSFPLEPLSRERAHKLEAISRLCEDKYKDLRRSARKRSASADNLTLPRWSPAIIS [L222A;S224A], the “effect of a mutation on the interaction” value was “decreasing interaction strength”.

Variants of: B1
Conditions: with cdk16_human CDK16, Q00536
Remark: another data set of the same source
MGNTTSCCVSSSPKLRRNAHSRLESYRPDTDLSREDTGCNLQHISDRENIDDLNMEFNPSDHPRASTIFLSKSQTDVREKRKSLFINHHPPGQIARKYSSCSTIFLDDSTVSQPNLKYTIKCVALAIYYHIKNRDPDGRMLLDIFDENLHPLSKSEVPPDYDKHNPEQKQIYRFVRTLFSAAQLTAECAIVTLVYLERLLTYAEIDICPANWKRIVLGAILAAAKVWDDQAVWNVDYCQILKDITVEDMNELERQFLELLQFNINVPSSVYAKYYFDLRSLAEANNLSFPLEPLSRERAHKLEAISRLCEDKYKDLRRSARKRSASADNLTLPRWSPAIIS [L222A;S224A] was tested, and the “effect of a mutation on the interaction” value was “disrupting interaction strength”.
